Reference: the supplement of paper PMC9170038

System: MS2 coat protein
Assay: apparent KD of MS2 coat protein; designed switch direction (-1 OFF switch, 1 ON switch): -1; higher = weaker reporter binding
How it was run: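 Normalised cluster fluorescence was curve-fitted, and each design's median over clusters is its apparent KD. Before this, SNAP-549-labelled MS2 coat protein was titrated from 0.7 or 1.5 nM, doubling to 3 µM, over RNA switches transcribed on Illumina chips by stalled E. coli RNA polymerase. Titrations had no input, 200 uM small-molecule ligand, or an oligonucleotide input, and steps lasted 0.8–1.5 h (lowest) to 10–20 min (highest).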

[1] = Eterna round: R95, input ligand: FMN 200 uM
[2] = Eterna round: R95, input ligand: microRNA oligo, concentration not stated
[3] = Eterna round: R95, input ligand: none
[4] = input ligand: microRNA oligo, concentration not stated

Sequence	apparent KD of MS2 coat protein (input ligand: FMN 200 uM) [nM]	apparent KD of MS2 coat protein (input ligand: none) [nM]	apparent KD of MS2 coat protein [1] [nM]	apparent KD of MS2 coat protein [2] [nM]	apparent KD of MS2 coat protein [3] [nM]	apparent KD of MS2 coat protein [4] [nM]
AAUAAGCUAGGAUAUACAUGAGGAUCACCCAUGUAUGACGAUACAGAAUCUGGCCCGAGUAGAAGGAGCAAACU [EX3 B.7] (Eterna round: R97, puzzle: Exclusion 3)	23.2	17.4				
AAUAAGCUAGGAUAUACAUGAGGAUCACCCAUGUGAGGGCACCGCCGGCGCGGGCCCGGUAGAAGGAGUCAUAA [Exc;s3-V] (puzzle: Exclusion 3)			22.1	34.3	27.7	
AAUAAUAAGGAGGAUAUCGUAUGCGAAAGCAUACGAGAAGGCCUAACAUGAGGAUCACCCAUGUUCCUCAAUAA [Mat - Exclusion 6 - Eli Mod - D55] (puzzle: Exclusion 6)			659	254	259	
AAUAAUAAUGUCAGGAUAUCUAGAGCUGCGGCUCUAGAGAAGGGACAUGAGGAUCACCCAUGUCACUCAAUAAU [BmEx4/3-C5] (Eterna round: R97, puzzle: Brourd's mod of Exclusion 4)	22	15.1				
AAUAAUCAUGUAGGAUAUGCGUGGCAAAGCUAUGCAGAAGGACAUGAGGAUCACCCAUGUUCUAGCGUCUGAAAACAGAUGCUA [Mat - Exclusion NG 1 - Mod of JL - D83] (Eterna round: R96, puzzle: Exclusion NG 1)	451	44.3				29.5
AAUAAUUGUGACUUGGGUGACAUGAGGAUCACCCAUGUCACAAGCUUGUUGCUCGCCUUAUAAUUAACCCAUGUCAC [LRO Sensor-off var1-26 mod of Stov1-13-A1 by Brourd] (Eterna round: R97, puzzle: Sensor, turn-off variant 1)	70.5	80.6				
AAUAAUUGUGACUUGGGUGACAUGAGGAUCACCCAUGUCACAAGCUUGUUGCUCGUCUUAUAAUUAACCCAUGUCAC [LRO Sensor-off var1-25 mod of Stov1-13-A1 by Brourd] (Eterna round: R97, puzzle: Sensor, turn-off variant 1)	48.1	40.9				
AAUACAAGCAAGAUCCUAAACAUGAGGAUCACCCAUGUGCUCGUCUUAUAAAGUACUAUCACGAAAGUGAUAGUACA [Sensor 3, v1 - 63] (puzzle: Sensor v3, turn-off variant 1)			213	438	234	
AAUACAAGUAAGAUCCUAAACAUGAGGAUCACCCAUGUGCUCGUCUUAUAAAGUACUAUCACGAAAGUGAUAGUACA [Sensor 3, v1 - 66] (puzzle: Sensor v3, turn-off variant 1)			48.7	314	37.5	
AAUACUAACAGCUGACUGUUAGUACUGUAGGUUUGUGUUACAUGAGGAUCACCCAUGUCCUCAUAGGCUCGUCUUGU [Mat - Sensor v3 - Turn-off var 2 - D98] (puzzle: Sensor v3, turn-off variant 2)			586	322	697	
AAUAUAAGCAAGAUCCUAAACAUGAGGAUCACCCAUGUGCUCGUCUUAUAAAGUACUAUCACGAAAGUGAUAGUACA [Sensor 3, v1 - 65] (puzzle: Sensor v3, turn-off variant 1)			111	398	127	
AAUAUGUGAGGAUAUUAGUUGUACGUCAAUAGACGUAUAAGUGAGAAGGCACAUGAGGAUCACCCAUGUUCCUG [Omei Ex4 Mod of Mat's R95 mod of Omei v3] (Eterna round: R97, puzzle: Exclusion 4)	98.2	23.7				
AAUAUUUUAGGAUAUGGCGGAAUAGACAUGAGGAUCACCCAUGUUAGAGGCGUGGUGAAGUUAGAAGGGAGGUGUU [Eternabot (L1) Solution 6] (Eterna round: R97, puzzle: Exclusion 5)	60	113				
AAUCAGCGAGGAUAUACAGAUUCUGGGUGCGGCUCGGCGAGACAUGAGGAUCACCCAUGUAGAAGGUGCUAGCC [Teoredre] (puzzle: Exclusion 2)				29.2		
AAUCAGUGUGUGAGGAUAUUGGUGGAAUGACUUAUUAAGAAGGCACAUGAGGAUCACCCAUGUGGGAAGUCACG [JR_BMEx4_Sub016] (Eterna round: R97, puzzle: Brourd's mod of Exclusion 4)	11.6	12.8				
AAUCAUGAACGAGCUUUUUACAUGAGGAUCACCCAUGUCCUCUGCUCGUCUUGUCUUGGGCUUUUUUUGGGUUCGGG [-22.4, -44.7 kcal, A 16%] (Eterna round: R97, puzzle: Sensor, turn-off variant 1)	320	355				

Sequence	apparent KD of MS2 coat protein (input ligand: FMN 200 uM) [nM]	apparent KD of MS2 coat protein (input ligand: none) [nM]	apparent KD of MS2 coat protein [1] [nM]	apparent KD of MS2 coat protein [2] [nM]	apparent KD of MS2 coat protein [3] [nM]	apparent KD of MS2 coat protein [4] [nM]
AAUCCACAUGAGGAUCACCCAUGUCAGGAUAUCGCGCGCGCGUUUUCGGUCUUUCGCGCGAGAAGGGACGGCUG (puzzle: Exclusion 1)				16.3		
AAUCCACAUGAGGAUCACCCAUGUGAGGAUAUGAUACUAUGUACUUCGGUACAUAGUAUCAGAAGGCACGGAUC [Ex1-3: 53] (puzzle: Exclusion 1)				29.9		
AAUGAUUGACGAGGAUAUUGUGGUAGAUCACGACGAGAAGGCGUUUGUCACAUGAGGAUCACCCAUGUGAGCCUUGUGGAUAGA [Ex NG1 #75] (Eterna round: R96, puzzle: Exclusion NG 1)	160	30.9				20.1
AAUGAUUGACGAGGAUAUUGUGUUAGAUCACGACGAGAAGGCGUCUGUCACAUGAGGAUCACCCAUGUGAGCCUGGUGGAUAGA [Ex NG1 #78] (Eterna round: R96, puzzle: Exclusion NG 1)	82.6	50				35.1
AAUGAUUGACGAGGAUAUUGUGUUAGAUCACGACGAGAAGGCGUUUGUCACAUGAGGAUCACCCAUGUGAGCCUUGUGGAUAGA [Ex NG1 #76] (Eterna round: R96, puzzle: Exclusion NG 1)	56.6	21.5				15.6
AAUGCUGGUGUGAGGAUAUCAGCUGAAGAACAGAAUGAGAAGGCACAUGAGGAUCACCCAUGUAAAAGAAUAAA [Atbelaqu] (Eterna round: R97, puzzle: Brourd's mod of Exclusion 4)	35.9	25.6				
AAUGUCUGAGGAUAUCGAUUAGUGUACAUGAGGAUCACCCAUGUUUUUAUUUGUAUAUUACGAGAAGGCAGUGGAA [JR_E5_Sub087] (puzzle: Exclusion 5)			20.6	19.1	17.2	
AAUGUGUAAGGAUAUCCGAAAAGCGAGCGAAAGCGAGCGAAGGAGAAGGUACAUGAGGAUCACCCAUGUAAGGG [AK-MS2ROC-r4-exclusion4-11.6] (Eterna round: R97, puzzle: Exclusion 4)	71.5	530				
AAUUAACAUGUAGGAUAUCUGCACGAUUAGUGCAGAGAAGGACAUGAGGAUCACCCAUGUAUAGCGACUUCGGUCGCAAUAAUU [ENG1/2-B1] (Eterna round: R96, puzzle: Exclusion NG 1)	161	80.6				69.5
AAUUAAUGAGGAUAUACAGUGUAAAACAUGAGGAUCACCCAUGUUCUUCAAUUAGUAUUUGUAGAAGGCAUAGGUA [JR_Ex5_Sub093] (Eterna round: R97, puzzle: Exclusion 5)	32	61.4				
AAUUAGCAAGCGAGGUCCCACAUGAGGAUCACCCAUGUGCUCGUCUUAUAAGGUACUGUGACGAGAGUCACGGUACC [Mat - Sensor, turn-off var - Eli Mod - D35] (Eterna round: R97, puzzle: Sensor, turn-off variant 1)	13.8	15.2				
AAUUAGUAUGUGAGGAUAUUGAUGAGAUGAUGGUUUAAGAAGGCACAUGAGGAUCACCCAUGUAGGAAAUAACG [JR_BMEx4_Sub005] (Eterna round: R97, puzzle: Brourd's mod of Exclusion 4)	37.8	24.4				
AAUUAGUGAGGAUAUUUUAACAGUGGUAGUAGACAGUGGAUGAAGAAGGCACAUGAGGAUCACCCAUGUUAUAA [EX4 #55] (Eterna round: R97, puzzle: Exclusion 4)	164	147				
AAUUCACAUGAGGAUCACCCAUGUCAGGAUAUGCUGACGCGGGUUUCGGUGCGUGUUGGCAGAAGGGACAGCUA (puzzle: Exclusion 1)				144		
AAUUCACAUGAGGAUCACCCAUGUCAGGAUAUGGUGACGCGGGUUUCGGUGCGUGUUGCCAGAAGGGACAGCUA (puzzle: Exclusion 1)				81.3		
